Measurements reported in patent publication US20240254223A1 (NOVIMMUNE, published 2024).

T1: high affinity trimeric IL-2R (IL-2Rα, IL-2Rβ and IL-2Rγ) on HEK-Blue IL-2 cells (UniProt P01589 22-272; P14784 27-551; P31785 23-369)
T1 sequence (looked up) 1: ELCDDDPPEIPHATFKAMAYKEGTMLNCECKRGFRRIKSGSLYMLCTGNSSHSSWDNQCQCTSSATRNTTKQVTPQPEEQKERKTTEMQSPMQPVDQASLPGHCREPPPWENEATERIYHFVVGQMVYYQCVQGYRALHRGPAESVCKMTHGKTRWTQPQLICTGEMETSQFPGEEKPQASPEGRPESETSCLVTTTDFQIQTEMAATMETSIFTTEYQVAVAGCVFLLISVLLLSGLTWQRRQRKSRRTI
T1 sequence (looked up) 2: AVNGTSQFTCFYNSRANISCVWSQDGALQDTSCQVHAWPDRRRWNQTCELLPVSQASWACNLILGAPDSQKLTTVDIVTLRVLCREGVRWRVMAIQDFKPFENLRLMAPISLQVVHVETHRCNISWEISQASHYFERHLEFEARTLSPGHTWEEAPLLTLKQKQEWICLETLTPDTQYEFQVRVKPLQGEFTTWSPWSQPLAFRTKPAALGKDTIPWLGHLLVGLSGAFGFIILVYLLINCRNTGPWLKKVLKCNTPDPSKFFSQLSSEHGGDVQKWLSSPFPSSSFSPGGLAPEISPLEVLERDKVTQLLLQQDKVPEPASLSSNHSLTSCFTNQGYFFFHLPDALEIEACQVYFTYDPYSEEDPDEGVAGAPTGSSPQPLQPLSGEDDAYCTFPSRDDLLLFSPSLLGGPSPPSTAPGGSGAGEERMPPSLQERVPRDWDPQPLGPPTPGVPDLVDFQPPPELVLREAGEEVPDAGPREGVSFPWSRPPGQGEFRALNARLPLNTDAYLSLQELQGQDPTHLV
T1 sequence (looked up) 3: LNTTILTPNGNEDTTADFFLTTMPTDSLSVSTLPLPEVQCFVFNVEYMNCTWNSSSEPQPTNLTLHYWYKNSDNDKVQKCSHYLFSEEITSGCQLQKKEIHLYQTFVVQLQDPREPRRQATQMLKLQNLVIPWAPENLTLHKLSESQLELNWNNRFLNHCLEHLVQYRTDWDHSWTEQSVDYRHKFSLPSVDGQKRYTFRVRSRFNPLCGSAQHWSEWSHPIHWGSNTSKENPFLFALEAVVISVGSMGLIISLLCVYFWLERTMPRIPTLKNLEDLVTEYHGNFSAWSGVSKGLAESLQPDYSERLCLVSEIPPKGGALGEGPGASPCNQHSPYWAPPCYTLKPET

T2: low-moderate affinity dimeric IL-2R (IL-2Rβ and IL-2Rγ) on HEK-Blue CD122/CD132 cells (UniProt P14784 27-551; P31785 23-369, limits assumed)
T2 sequence (looked up) 1: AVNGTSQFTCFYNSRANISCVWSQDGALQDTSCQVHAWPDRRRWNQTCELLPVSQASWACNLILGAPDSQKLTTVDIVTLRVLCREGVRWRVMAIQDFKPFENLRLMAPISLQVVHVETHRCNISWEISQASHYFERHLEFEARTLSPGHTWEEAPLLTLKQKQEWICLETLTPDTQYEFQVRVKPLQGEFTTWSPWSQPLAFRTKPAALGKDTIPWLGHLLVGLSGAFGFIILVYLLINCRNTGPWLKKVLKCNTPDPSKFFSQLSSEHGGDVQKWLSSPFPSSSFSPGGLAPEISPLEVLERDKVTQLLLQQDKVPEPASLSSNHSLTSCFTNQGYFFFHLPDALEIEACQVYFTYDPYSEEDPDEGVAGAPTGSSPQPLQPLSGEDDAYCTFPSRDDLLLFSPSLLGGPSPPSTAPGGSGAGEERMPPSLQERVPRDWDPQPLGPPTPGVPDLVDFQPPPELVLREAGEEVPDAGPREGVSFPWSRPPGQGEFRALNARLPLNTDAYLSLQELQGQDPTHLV
T2 sequence (looked up) 2: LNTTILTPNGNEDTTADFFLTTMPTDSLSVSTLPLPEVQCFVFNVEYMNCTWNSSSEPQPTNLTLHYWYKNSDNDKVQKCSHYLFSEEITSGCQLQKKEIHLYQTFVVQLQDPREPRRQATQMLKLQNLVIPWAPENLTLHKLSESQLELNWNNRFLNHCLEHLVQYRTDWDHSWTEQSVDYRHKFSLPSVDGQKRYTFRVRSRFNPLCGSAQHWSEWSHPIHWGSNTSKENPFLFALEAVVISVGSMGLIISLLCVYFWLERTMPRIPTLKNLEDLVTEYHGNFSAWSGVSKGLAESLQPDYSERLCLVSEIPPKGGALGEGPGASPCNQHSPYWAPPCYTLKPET


Tests used:
[1] = target: T1, high affinity trimeric IL-2R (IL-2Rα, …); test: cell-based or functional assay
His-tagged human CD47 = target: T3, His-tagged human CD47 (human, UniProt Q08722 19-139, limits assumed); test: BLI, His-CD47 on HIS1K sensor, after MMP-9 treatment
T3 construct: loaded on HIS1K biosensors at 2.5 µg/mL; also called target antigen; not shown: His tag
Experimental: The capacity of the masking domains to inhibit binding activity of the antibody was evaluated by Bio-Layer Interferometry (BLI). […] Binding experiments were performed to evaluate the masking efficiency and the binding recovery after cleavage of the masking domains. BLI was performed on an Octet RED96 system (Sartorius). His-tagged human CD47 was diluted at 2.5 μg/mL in Kinetic Buffer (KB) (Sartorius) and loaded on HIS1K biosensors (anti-His tag antibody biosensors, Sartorius) for 300 seconds. Loaded biosensors were dipped into antibodies diluted at 15 μg/mL in KB for 300 seconds to monitor association. Then, biosensors were transferred in KB for dissociation for 60 seconds. Binding profiles were then analyzed with ForteBio Data Analysis software.

[2] = target: T4, CD47 at the surface of Peak cells (human, UniProt Q08722 19-323); test: flow cytometry, Peak cells, after MMP-9 treatment
T4 construct: whole, on cells; also called cell surface CD47
Experimental: Binding activity of antibody-cytokine/receptor fusions before and after cleavage was also evaluated by flow cytometry. Peak cells derived from HEK 293 which are human cells expressing CD47 were used to evaluate masking efficacy and binding recovery to CD47 by flow cytometry. Peak cells were diluted in cold FACS buffer (PBS, 2% BSA) to 1.2×10⁶ cells/mL. 3×10⁵ cells/well were added in a 96 well V-bottom plate. The plate was then centrifugated for 5 min at 1300 rpm, 4° C. Supernatants were removed and cells were washed twice using FACS buffer. A serial dilution of antibody-cytokine/receptor fusions previously digested with MMP-9 or not digested as described above was prepared in FACS buffer. An irrelevant antibody was included. Then, 150 μL of each diluted antibody were added in corresponding well and incubated for 30 min at 4° C. Cells were washed twice with FACS buffer and 100 μL of a mouse anti human Fc-PE conjugated secondary antibody were added and the plate was incubated for 20 min at 4° C. Cells were then washed twice with FACS buffer. Finally, 150 μL of SYTOX blue dead cell stain (ThermoFisher) diluted to 1/5000 in FACS buffer were added before detection by flow cytometry with Cytoflex (Beckman Coulter). Acquisition was performed with 10000 events for each well. Data were analyzed by FlowJo software.

[3] = target: T2, low-moderate affinity dimeric IL-2R …; test: cell-based or functional assay

EC50 after cleavage IL-2, HEK Blue IL-2 αβγ reporter assay [1] [nM]	Binding after cleavage (BLI) (His-tagged human CD47) [nm]	EC50 [2] [nM]	EC50 after cleavage IL-2, HEK Blue IL-2 βγ reporter assay [3] [nM]	Binder
0.03	1.2	1.7	–	Construct No 1051 after cleavage by MMP-9 (antibody, MMP-9 digest of m36; the sample also holds the released IL-2Rα-(GGGGS)2-IL-2 fusion (no cleavable linker between the two); also called n1051 after cleavage; not shown: remnant of CM1 and linker after MMP-9 cleavage) light: DIQMTQSPSSLSASVGDRVTITCNVDQVIANWLNWYQQKPGKAPKLLIYAASSLQSGVPSRFSGSGSGTDFTLTISSLQPEDFATYYCQQMHPRAPKQFGQGTKVEIKRTVAAPSVFIFPPSDEQLKSGTASVVCLLNNFYPREAKVQWKVDNALQSGNSQESVTEQDSKDSTYSLSSTLTLSKADYEKHKVYACEVTHQGLSSPVTKSFNRGEC heavy: not shown
0.01	1.3	1.3	–	Construct No 1021 after cleavage by MMP-9 (antibody, MMP-9 digest of m35; the sample also holds the released IL-2Rα and IL-2; also called n1021 after cleavage; not shown: remnant of CM1 and linker after MMP-9 cleavage) light: DIQMTQSPSSLSASVGDRVTITCNVDQVIANWLNWYQQKPGKAPKLLIYAASSLQSGVPSRFSGSGSGTDFTLTISSLQPEDFATYYCQQMHPRAPKQFGQGTKVEIKRTVAAPSVFIFPPSDEQLKSGTASVVCLLNNFYPREAKVQWKVDNALQSGNSQESVTEQDSKDSTYSLSSTLTLSKADYEKHKVYACEVTHQGLSSPVTKSFNRGEC heavy: not shown
0.01	–	0.6	–	Construct No 545 after cleavage by MMP-9 (antibody, MMP-9 digest of m19; the sample also holds the released IL-2, IL-2Rα and IL-2Rβ; also called n545 after cleavage; not shown: remnant of CM1 and linker after MMP-9 cleavage) light: DIQMTQSPSSLSASVGDRVTITCNVDQVIANWLNWYQQKPGKAPKLLIYAASSLQSGVPSRFSGSGSGTDFTLTISSLQPEDFATYYCQQMHPRAPKQFGQGTKVEIKRTVAAPSVFIFPPSDEQLKSGTASVVCLLNNFYPREAKVQWKVDNALQSGNSQESVTEQDSKDSTYSLSSTLTLSKADYEKHKVYACEVTHQGLSSPVTKSFNRGEC heavy: not shown

The next lines start with the binder.

Binder	EC50 after cleavage IL-2, HEK Blue IL-2 αβγ reporter assay [1] [nM]	Binding after cleavage (BLI) (His-tagged human CD47) [nm]	EC50 [2] [nM]	EC50 after cleavage IL-2, HEK Blue IL-2 βγ reporter assay [3] [nM]
Construct No 530 after cleavage by MMP-9 (antibody, MMP-9 digest of m18; the sample also holds the released IL-2, IL-2Rα and IL-2Rβ; also called n530 after cleavage; not shown: remnant of CM1 and linker after MMP-9 cleavage) light: DIQMTQSPSSLSASVGDRVTITCNVDQVIANWLNWYQQKPGKAPKLLIYAASSLQSGVPSRFSGSGSGTDFTLTISSLQPEDFATYYCQQMHPRAPKQFGQGTKVEIKRTVAAPSVFIFPPSDEQLKSGTASVVCLLNNFYPREAKVQWKVDNALQSGNSQESVTEQDSKDSTYSLSSTLTLSKADYEKHKVYACEVTHQGLSSPVTKSFNRGEC heavy: not shown	0.01	–	0.4	–
Construct No 291 after cleavage by MMP-9 (antibody) chain 1: DIQMTQSPSSLSASVGDRVTITCNVDQVIANWLNWYQQKPGKAPKLLIYAASSLQSGVPSRFSGSGSGTDFTLTISSLQPEDFATYYCQQMHPRAPKQFGQGTKVEIKRTVAAPSVFIFPPSDEQLKSGTASVVCLLNNFYPREAKVQWKVDNALQSGNSQESVTEQDSKDSTYSLSSTLTLSKADYEKHKVYACEVTHQGLSSPVTKSFNRGEC chain 2: not shown	0.01	–	0.4	–
Construct No 490 after cleavage by MMP-9 (antibody, MMP-9 digest of m20; the sample also holds the released IL-2, IL-2Rα (to 185) and IL-2Rβ; also called n490 after cleavage; not shown: remnant of CM1 and linker after MMP-9 cleavage) light: DIQMTQSPSSLSASVGDRVTITCNVDQVIANWLNWYQQKPGKAPKLLIYAASSLQSGVPSRFSGSGSGTDFTLTISSLQPEDFATYYCQQMHPRAPKQFGQGTKVEIKRTVAAPSVFIFPPSDEQLKSGTASVVCLLNNFYPREAKVQWKVDNALQSGNSQESVTEQDSKDSTYSLSSTLTLSKADYEKHKVYACEVTHQGLSSPVTKSFNRGEC heavy: not shown	0.01	–	0.5	–
Construct No 2 after cleavage by MMP-9 (antibody, MMP-9 digest of m3; the sample also holds the released IL-2; also called n2 after cleavage; not shown: remnant of CM1 and linker after MMP-9 cleavage) light: DIQMTQSPSSLSASVGDRVTITCNVDQVIANWLNWYQQKPGKAPKLLIYAASSLQSGVPSRFSGSGSGTDFTLTISSLQPEDFATYYCQQMHPRAPKQFGQGTKVEIKRTVAAPSVFIFPPSDEQLKSGTASVVCLLNNFYPREAKVQWKVDNALQSGNSQESVTEQDSKDSTYSLSSTLTLSKADYEKHKVYACEVTHQGLSSPVTKSFNRGEC heavy: not shown	0.11	–	0.4	0.09
